Test results taken from patent US20210054071A1 (NANJING LEGEND BIOTECH, published 2021).
Values belong to the binder of their own block, whether it stands above or below them.

How the values were obtained:
[1] = biological target: T1, TIGIT on TIGIT effector cells (UniProt Q495A1 22-244, limits assumed); assay: cell-based or functional assay
T1 sequence (looked up): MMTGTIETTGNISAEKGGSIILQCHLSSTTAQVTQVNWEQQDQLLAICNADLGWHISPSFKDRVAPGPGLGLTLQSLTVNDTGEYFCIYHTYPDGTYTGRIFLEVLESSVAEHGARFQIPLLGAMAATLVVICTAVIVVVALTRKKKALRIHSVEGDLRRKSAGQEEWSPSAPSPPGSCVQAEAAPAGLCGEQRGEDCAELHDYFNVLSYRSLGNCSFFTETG

[2] = biological target: T2, TIGIT on activated primary human T cells (human, UniProt Q495A1); assay: FACS binding to activated, expanded primary human CD8+ T cells isolated from PBMCs; the sheet names only the cells, target by the binder's specificity as named in the filing (anti-TIGIT)
T2 sequence (receptor, looked up): T1 sequence (looked up)

[3] = biological target: T2, TIGIT on activated primary human T cells; assay: FACS binding to activated, expanded primary human CD4+ T cells isolated from PBMCs; the sheet names only the cells, target by the binder's specificity as named in the filing (anti-TIGIT)
[4] = biological target: T1, TIGIT on TIGIT effector cells; assay: cell-based or functional assay; remark: listed apart in the source
[5] = biological target: T3, human TIGIT expressed on CHO-K1 cells (human, UniProt Q495A1 22-244); assay: FACS, CHO-TIGIT cells
T3 construct: also called CHO/human TIGIT cells; CHO-TIGIT cells
T3 sequence: T1 sequence (looked up)
Description: (§1) To determine cell binding EC₅₀, CHO—K1 cells expressing human, cynomolgus or murine TIGIT were harvested and incubated with gradient concentrations of anti-TIGIT sdAb-Fc fusion proteins, followed by fluorophore-labeled secondary antibodies against human Fc. […] Samples were analyzed with flow cytometry.

[6] = biological target: T3, human TIGIT expressed on CHO-K1 cells; assay: FACS competition, CD155 binding to CHO-TIGIT cells
Description: as §1

PD-1 expressed on cells [7] = biological target: T4, PD-1 expressed on cells (UniProt Q15116 25-288, limits assumed); assay: cell-based or functional assay
T4 sequence (Q15116 25-288 limits assumed): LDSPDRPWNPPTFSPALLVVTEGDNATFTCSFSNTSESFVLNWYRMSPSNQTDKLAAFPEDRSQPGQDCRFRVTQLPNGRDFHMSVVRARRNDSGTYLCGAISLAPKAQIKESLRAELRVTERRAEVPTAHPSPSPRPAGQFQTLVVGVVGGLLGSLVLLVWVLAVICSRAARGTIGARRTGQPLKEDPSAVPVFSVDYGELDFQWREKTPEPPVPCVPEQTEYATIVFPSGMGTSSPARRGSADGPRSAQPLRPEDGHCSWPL

PD-1 expressed on cells [8] = biological target: T4, PD-1 expressed on cells; assay: FACS, CHO-PD-1 cells
PD-1 expressed on cells [9] = biological target: T4, PD-1 expressed on cells; assay: FACS competition, PD-L1 binding to CHO-PD-1 cells
[10] = biological target: T5, human PD-1 (Acrobiosystems) (human, UniProt Q15116 25-167); assay: SPR as in Example 2
T5 construct: bought
T5 sequence (Q15116 25-167 limits assumed): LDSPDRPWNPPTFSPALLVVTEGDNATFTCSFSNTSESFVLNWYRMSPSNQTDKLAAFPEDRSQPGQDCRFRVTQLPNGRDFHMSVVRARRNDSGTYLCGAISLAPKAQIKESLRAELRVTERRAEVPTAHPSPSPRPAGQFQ
Description: (§2) BIAcore T200 instrument was utilized to determine affinity constant (KD) of each anti-TIGIT sdAb-Fc fusion protein by SPR. […] Anti-TIGIT sdAb-Fc fusion proteins were injected at no less than 5 different concentrations.

[11] = biological target: T6, mouse TIGIT-His protein (Acrobiosystems) (mouse, UniProt P86176 29-148, limits assumed); assay: SPR as in Example 2
T6 construct: bought
T6 sequence (looked up): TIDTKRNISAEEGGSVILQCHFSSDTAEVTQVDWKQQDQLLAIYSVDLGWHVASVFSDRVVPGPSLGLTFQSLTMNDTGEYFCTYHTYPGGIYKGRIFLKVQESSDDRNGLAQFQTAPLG
Description: as §2

[12] = biological target: T7, human TIGIT-His protein (Acrobiosystems) (human, UniProt Q495A1 22-141); assay: SPR as in Example 2
T7 construct: Bought; Genbank NP_776160
T7 sequence: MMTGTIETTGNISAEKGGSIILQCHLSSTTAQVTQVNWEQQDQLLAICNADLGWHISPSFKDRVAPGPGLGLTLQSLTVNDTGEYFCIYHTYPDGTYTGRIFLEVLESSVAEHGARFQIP
Description: as §2

TIGIT Reporter assay EC50 [1]: 11.4 nM
EC50 [2]: 1.41 nM
EC50 [3]: 0.403 nM
PD-L1/TIGIT bifunctional reporter assay: EC50 [4]: 3.61 nM
PD-L1/TIGIT bifunctional reporter assay: Upper plateau of signal [4]: 983
EC50 [5]: 2.24 nM
EC50 [6]: 2.42 nM
B1: Tiragolumab (antibody, human IgG1, kappa, V domains shown)
VH: EVQLQQSGPGLVKPSQTLSLTCAISGDSVSSNSAAWNWIRQSPSRGLEWLGKTYYRFKWYSDYAVSVKGRITINPDTSKNQFSLQLNSVTPEDTAVFYCTRESTTYDLLAGPFDYWGQGTLVTVSS
VL: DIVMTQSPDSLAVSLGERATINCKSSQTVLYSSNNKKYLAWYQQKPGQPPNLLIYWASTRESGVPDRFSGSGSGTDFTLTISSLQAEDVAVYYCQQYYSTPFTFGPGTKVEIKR
notes: also called Tiragolumab (anti-TIGIT)

TIGIT IL-2 release EC50 [1]: 0.565 nM
TIGIT Reporter assay EC50 [1]: 4.03 nM
PD-1 cell based assay EC50 (PD-1 expressed on cells [7]): 2.33 nM
EC50 (PD-1 expressed on cells [8]): 1.92 nM
EC50 (PD-1 expressed on cells [9]): 2.21 nM
Kd [10]: 0.42 nM
Kd [11]: 0.62 nM
B2: BTP-13 (bispecific antibody, human IgG4 S228P, kappa)
heavy: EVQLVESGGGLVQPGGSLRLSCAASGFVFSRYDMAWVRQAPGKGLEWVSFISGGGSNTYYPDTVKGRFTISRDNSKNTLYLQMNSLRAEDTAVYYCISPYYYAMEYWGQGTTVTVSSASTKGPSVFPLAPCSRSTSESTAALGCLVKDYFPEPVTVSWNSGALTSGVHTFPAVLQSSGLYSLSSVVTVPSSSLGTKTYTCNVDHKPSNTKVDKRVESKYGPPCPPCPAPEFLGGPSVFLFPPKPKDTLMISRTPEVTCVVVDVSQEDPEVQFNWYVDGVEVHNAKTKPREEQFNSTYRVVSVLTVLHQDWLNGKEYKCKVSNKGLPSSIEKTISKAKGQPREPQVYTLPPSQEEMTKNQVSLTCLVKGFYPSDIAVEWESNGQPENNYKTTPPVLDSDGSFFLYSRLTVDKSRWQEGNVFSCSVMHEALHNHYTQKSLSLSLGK
light: EVQLVESGGGLVQPGGSLRLSCAASGYKYGVYSMGWFRQAPGKGLEGVSAICSGGRTTYSDSVKGRFTISRDNSNQILYLQMNSLRAEDTAVYYCAARPLWTGDCDLSSSWYKTWGQGTLVTVSSEPKSSDKTHTSPPSPDIQMTQSPSSVSASVGDRVTITCKASQDVDTAVAWYQQKPGKAPKLLIYWASTRHTGVPSRFSGSGSGTDFTLTISSLQPEDFATYYCQQYSTFPWTFGGGTKVEIKRTVAAPSVFIFPPSDEQLKSGTASVVCLLNNFYPREAKVQWKVDNALQSGNSQESVTEQDSKDSTYSLSSTLTLSKADYEKHKVYACEVTHQGLSSPVTKSFNRGEC
notes: AS19584VH28 - mutated hIgG1 hinge - PD1-BM-min light chain; PD1-BM-min heavy chain (IgG4); also called BTP-13 (IgG4); PD-1×TIGIT BABP

TIGIT Reporter assay EC50 [1]: 5.42 nM
EC50 [2]: 0.174 nM
EC50 [3]: 0.107 nM
PD-L1/TIGIT bifunctional reporter assay: EC50 [4]: 10.6 nM
PD-L1/TIGIT bifunctional reporter assay: Upper plateau of signal [4]: 1610
Kd [12]: 0.36 nM
Kd [11]: 1.1 nM
B3: AS19584VH28-Fc fusion protein with effectorless human IgG1 (inert hIgG1) Fc (Fc fusion)
chain: EVQLVESGGGLVQPGGSLRLSCAASGYKYGVYSMGWFRQAPGKGLEGVSAICSGGRTTYSDSVKGRFTISRDNSNQILYLQMNSLRAEDTAVYYCAARPLWTGDCDLSSSWYKTWGQGTLVTVSSAPELLGGPSVFLFPPKPKDTLMISRTPEVTCVVVDVSHEDPEVKFNWYVDGVEVHNAKTKPREEQYASTYRVVSVLTVLHQDWLNGKEYKCKVSNKALPAPIEKTISKAKGQPREPQVYTLPPSREEMTKNQVSLTCLVKGFYPSDIAVEWESNGQPENNYKTTPPVLDSDGSFFLYSKLTVDKSRWQQGNVFSCSVMHEALHNHYTQKSLSLSPGK
notes: built from the sdAb and the inert IgG1 Fc region it names; also called AS19584VH28 (inert IgG1); AS19584VH28 inert IgG1
